For the assay, the target named is probable NS4B (27 kDa), expressed from pTM1-NS25 (hepatitis C virus, UniProt P26664). Briefly: co-immunoprecipitation with anti-E2 antibody from lysates of cells co-transfected with pTM1-NS25.

B1: E2 species encoded by the template terminating at amino acid 699 (other)
chain: ETHVTGGSAGHTVSGFVSLLAPGAKQNVQLINTNGSWHLNSTALNCNDSLNTGWLAGLFYHHKFNSSGCPERLASCRPLTDFDQGWGPISYANGSGPDQRPYCWHYPPKPCGIVPAKSVCGPVYCFTPSPVVVGTTDRSGAPTYSWGENDTDVFVLNNTRPPLGNWFGCTWMNSTGFTKVCGAPPCVIGGAGNNTLHCPTDCFRKHPDATYSRCGSGPWITPRCLVDYPYRLWHYPCTINYTIFKIRMYVGGVEHRLEAACNWTRGERCDLEDRDRSELSPLLLTTTQWQVLPCSFTTLPALSTGLIHLHQNIVDV
As for B1, the binding result is “no binding”.
